Target: trimeric gp140 clade A HIV-1 92/UG/037 (HIV-1 clade A strain 92/UG/037)
Test: SPR

## GNA (natural protein)
  Kd: 7.2 nM
